Key:
[1] = biological target: T1, TMEM55B (residues 80-160) (Homo sapiens, UniProt Q86T03); experiment: Isothermal titration calorimetry of TBM peptides / OCRL PH domain with TMEM55B; assay type: binding; conditions: ITC; titration shown in the figure panel (Figure 1G / Figure 6B); value printed in the picture, ±% = fitting error
T1 construct: injected into a cell containing TMEM55B (residues 80-160); hexa-Histidine (N); made in house; host or cells: E. coli BL21(DE3)
Method: Calorimetry experiments were performed using an ITC200 (Particular Sciences) as described in dx.doi.org/10.17504/protocols.io.j8nlkr7x6v5r/v1. Experiments were performed 3 or more times for each interacting pair. The TBM peptides were dialyzed together with TMEM55B80-160 (20 mM) Tris-HCl, 150mM NaCl, 5mM and 1mM DTT, pH 7.5). Protein concentrations were calculated based on their absorbance at 280nm using a ND-1000 NanoDrop spectrophotometer (Thermo Scientific), peptide concentration was determined by adding buffer to a known amount of lyophilized peptide factoring in their purity. The proteins were centrifuged at 13,100 x g for 10 minutes prior to the determination of protein concentration and ITC analyses. […]. We used Origin 7.0 with the ITC plugin for data processing, and assumed a single binding mode for data fitting.

[2] = system: WT TMEM55B region 80-166; experiment: In vitro pulldown of untagged TMEM55B with His-tagged bait peptides; assay type: binding; conditions: 10 μM bait, 10 μM prey, Ni2+-agarose, 20 mM Tris pH 8.0, 300 mM NaCl, 20 mM imidazole, 15 minutes, SDS-PAGE, Coomassie, qualitative
From the text: Figure 5: In vitro pulldowns of TMEM55B with TBM peptides. (A) Domain organization of TMEM55B interactors depicting the sequence context of the TBM. Regions that are α-helical have been drawn as cylinders; α/βfolds are shown as rectangles; and unstructured segments are zigzag lines. (B) Cartoon depiction of the in vitro pulldown strategy using His-tagged peptides. […] As a control, the R151E variant of TMEM55B was used, which abolishes the interactions with RILPL1 (bottom panel). […] Protein/peptide concentrations were 10μM (see Methods) and visualization was enabled by Coomassie Brilliant Blue G250.
Given that the TBMs reside in flexible regions of the adaptor proteins (Figure 5A), peptides should be able to mimic their interactions with TMEM55B. Peptides corresponding to the potential TBMs were synthesized with an N-terminal hexahistidine tag to enable in vitro pulldowns of TMEM55B (80-166; Figure 5B). Slightly extended peptides beyond the minimal TBMs were generated to preclude any structural or conformational restrictions on the interaction with TMEM55B. The peptide TBM from RILPL1 was used as a positive control, and the mutant R151E™ of TMEM55B provided a negative control. Peptides run on conventional SDS-PAGE gels are generally not visible in this assay. […]

T1 sequence (Q86T03 73-153): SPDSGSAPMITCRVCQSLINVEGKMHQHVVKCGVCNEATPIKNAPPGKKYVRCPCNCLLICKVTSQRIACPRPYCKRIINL

Kd [1]: 900 nM
B1: OCRL-PH domain: recombinant His-tagged PH domain, residues 1-129 of OCRL, ~16kDa (protein, UniProt Q01968 1-129, looked up, fragment)
chain: MEPPLPVGAQPLATVEGMEMKGPLREPCALTLAQRNGQYELIIQLHEKEQHVQDIIPINSHFRCVQEAEETLLIDIASNSGCKIRVQGDWIRERRFEIPDEEHCLKFLSAVLAAQKAQSQLLVPEQKDS
modifications: PH domain His tag
notes: recombinant His-tagged PH domain, residues 1-129 of OCRL, ~16kDa
pulldown of untagged WT TMEM55B (80-166) by His-tagged bait [2]: interacts robustly
pulldown of untagged WT TMEM55B (80-166) by His-tagged bait ([2]; listed as PH domain of OCRL1): successfully pulldown

From article doi:10.1101/2025.08.19.670962, “Structural basis for binding of RILPL1 to TMEM55B reveals a lysosomal platform for adaptor assembly through a conserved TBM motif” (bioRxiv, 2025)
